Data on two substances can be found in article PMC3690481.

pKd: −log10 of the molar value.

By pKd is commonly meant the negative decadic logarithm of the Kd, by convention in mol/L.

The target of assay [1] is Lys63-linked diUb (UniProt P0CG48). Nature of the assay: fluorescence polarisation; FlAsH-tagged diUb fixed (10 μl of 100 nM plus 10 μl protein), OTULIN C129A variants serially diluted; 20 mM Tris pH 7.4, 100 mM NaCl, 5 mM β-mercaptoethanol, 0.1 mg/ml BSA; one-site binding model; triplicate. A general note: Polarisation of emitted light reports the rotation of a fluorescent probe.

Assay [2] addresses FlAsH-tagged Met1-diUb E16A^prox (UniProt P0CG48). Nature of the assay: fluorescence anisotropy.

Consider “OTULIN (1–352) C129A (from UniProt Q96BN8 1-352) (enzyme)”, for which the pKd in assay [1] is 4.92.

In assay [2], m1; m3 OTULIN:N341D; proximal Ub:E16A had a negative logarithm of the Kd (pKd) of 6.93.
